From PMC10936626 (Autophagy, 2023)

Biological target: GST-tagged SRC, bacterially purified (human, UniProt P12931-1 1-536)
Assay: pull-down

B1: Flag-tagged MEF2D protein purified from HEK293T cells (natural protein, human, UniProt Q14814-1 1-521, looked up)
chain: MGRKKIQIQRITDERNRQVTFTKRKFGLMKKAYELSVLCDCEIALIIFNHSNKLFQYASTDMDKVLLKYTEYNEPHESRTNADIIETLRKKGFNGCDSPEPDGEDSLEQSPLLEDKYRRASEELDGLFRRYGSTVPAPNFAMPVTVPVSNQSSLQFSNPSGSLVTPSLVTSSLTDPRLLSPQQPALQRNSVSPGLPQRPASAGAMLGGDLNSANGACPSPVGNGYVSARASPGLLPVANGNSLNKVIPAKSPPPPTHSTQLGAPSRKPDLRVITSQAGKGLMHHLTEDHLDLNNAQRLGVSQSTHSLTTPVVSVATPSLLSQGLPFSSMPTAYNTDYQLTSAELSSLPAFSSPGGLSLGNVTAWQQPQQPQQPQQPQPPQQQPPQPQQPQPQQPQQPQQPPQQQSHLVPVSLSNLIPGSPLPHVGAALTVTTHPHISIKSEPVSPSRERSPAPPPPAVFPAARPEPGDGLSSPAGGSYETGDRDDGRGDFGPTLGLLRPAPEPEAEGSAVKRMRLDTWTLK
  binding result: binds
